Results on three molecules are retold here after paper PMC11568366, “Phosphorylation of cytochrome c at tyrosine 48 finely regulates its binding to the histone chaperone SET/TAF‐Iβ in the nucleus” (Protein Science : A Publication of the Protein Society, 2024).

The target of experiment [1] is T1, SET/template-activating factor Iβ (SET/TAF-Iβ), recombinant (UniProt Q01105-2 1-277).
T1 construct: SET/TAF-Iβ, the beta isoform of SET; construct in pET28a(+) from González-Arzola et al. 2015; Concentration is expressed as the functional homodimer
Kind of experiment: ITC; 300 μM reduced Cc injected (17 x 2.91 μL) into 30 μM SET/TAF-Iβ (as homodimer) in the cell, 25°C, 10 mM sodium phosphate pH 7.4; WT fitted with two cooperative binding sites, mutants with independent binding sites. Particulars: both partners purified.

In experiment [2] the target is T1, SET/template-activating factor Iβ …. The experiment is described as above. Particulars: both partners purified. This is another data set of the same source.

T1 sequence (Q01105 other isoform, or with tags, fused parts or gaps): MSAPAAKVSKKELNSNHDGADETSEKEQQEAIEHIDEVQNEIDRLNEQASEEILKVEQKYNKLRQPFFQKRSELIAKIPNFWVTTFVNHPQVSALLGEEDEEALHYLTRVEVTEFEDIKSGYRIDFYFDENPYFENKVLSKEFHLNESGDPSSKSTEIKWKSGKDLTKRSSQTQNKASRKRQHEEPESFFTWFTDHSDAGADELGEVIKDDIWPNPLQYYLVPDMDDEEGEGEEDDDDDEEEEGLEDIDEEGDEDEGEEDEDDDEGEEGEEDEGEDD

B1: wild-type cytochrome c (reduced) (natural protein)
chain: not shown
notes: cytochrome c, human; Hemeprotein, kept reduced with sodium ascorbate in ITC and NMR; Construct and expression as in cited earlier work (Moreno-Beltrán et al. 2015; Olteanu et al. 2003); also called WT Cc; Cc
As for B1, in experiment [1], the stoichiometry N (commonly the number of molecules, sites or subunits per partner or assembly) was 2 Cc per SET/TAF-Iβ homodimer. In experiment [2], the “dH1 (first site)” value worked out at 1.3 kcal/mol and the “dH2 (second site)” value turned out to be 6.9 kcal/mol.

B2: Y48D cytochrome c phosphomimetic mutant (reduced) (natural protein)
chain: not shown
notes: cytochrome c, human; Hemeprotein, reduced in ITC; also called Y48D Cc
Turning to B2, in experiment [2], the equilibrium dissociation constant (Kd) (as a rule, the concentration at which binding is half-saturated) turned out to be 22 µM; the dH was -7.5 kcal/mol; the “stoichiometry N” value was 2.2.

B3: Y48E cytochrome c phosphomimetic mutant (reduced) (natural protein)
chain: not shown
notes: cytochrome c, human; Hemeprotein, reduced in ITC; also called Y48E Cc
On to B3, for which, in experiment [2], the Kd is 110 µM, the dH is -19 kcal/mol and the “stoichiometry N” value worked out at 2.3.
